According to article doi:10.1101/452920:
Numbering of substitutions follows the chain as printed. Where two headings read alike, the source gives them in different places.

T1: MRPP3 (Δ95) (human, UniProt O15091 96-583, del1-95)
T1 sequence: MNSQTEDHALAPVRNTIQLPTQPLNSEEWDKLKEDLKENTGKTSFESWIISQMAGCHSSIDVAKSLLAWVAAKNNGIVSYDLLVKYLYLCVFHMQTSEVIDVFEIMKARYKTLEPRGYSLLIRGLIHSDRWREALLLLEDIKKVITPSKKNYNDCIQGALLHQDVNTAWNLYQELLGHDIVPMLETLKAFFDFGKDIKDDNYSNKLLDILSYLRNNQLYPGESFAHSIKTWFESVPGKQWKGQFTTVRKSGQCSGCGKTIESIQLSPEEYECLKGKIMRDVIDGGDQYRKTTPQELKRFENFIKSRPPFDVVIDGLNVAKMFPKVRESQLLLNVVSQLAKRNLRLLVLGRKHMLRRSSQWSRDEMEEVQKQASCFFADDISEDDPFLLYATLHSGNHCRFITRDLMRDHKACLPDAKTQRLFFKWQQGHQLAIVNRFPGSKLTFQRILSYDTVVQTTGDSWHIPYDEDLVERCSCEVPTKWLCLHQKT

T2: MRPP1 (Δ39);MRPP2 (human;human, UniProt Q7L0Y3;Q99714 40-403;1-261, del1-39|)
T2 sequence 1: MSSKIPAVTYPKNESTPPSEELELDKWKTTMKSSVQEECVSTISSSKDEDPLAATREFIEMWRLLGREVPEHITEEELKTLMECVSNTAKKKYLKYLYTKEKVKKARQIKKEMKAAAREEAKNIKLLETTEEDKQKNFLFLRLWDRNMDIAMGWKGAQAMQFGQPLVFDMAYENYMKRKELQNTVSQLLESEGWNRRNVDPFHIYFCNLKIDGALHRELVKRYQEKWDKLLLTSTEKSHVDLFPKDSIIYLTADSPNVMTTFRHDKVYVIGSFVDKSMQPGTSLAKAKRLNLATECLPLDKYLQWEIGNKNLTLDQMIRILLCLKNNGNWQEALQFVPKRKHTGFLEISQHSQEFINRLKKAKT
T2 sequence 2: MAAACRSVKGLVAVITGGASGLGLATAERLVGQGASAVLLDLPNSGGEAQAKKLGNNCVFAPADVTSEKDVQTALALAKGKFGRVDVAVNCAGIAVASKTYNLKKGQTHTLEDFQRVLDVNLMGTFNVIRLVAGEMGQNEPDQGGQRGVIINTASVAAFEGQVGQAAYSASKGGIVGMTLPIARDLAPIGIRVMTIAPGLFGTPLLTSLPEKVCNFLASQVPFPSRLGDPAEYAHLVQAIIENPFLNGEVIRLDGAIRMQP

T3: MRPP1 (Δ39);MRPP2;MRPP3 (Δ95) (human;human;human, UniProt Q7L0Y3;Q99714;O15091 40-403;1-261;96-583, del1-39||del1-95)
T3 sequence 1: T2 sequence 1
T3 sequence 2: T2 sequence 2
T3 sequence 3: T1 sequence

B1: (mt)pre-tRNAVal7:0 (structured_RNA)
RNA: GACGAACCAGAGUGUAGCUUAACACAAAGCACCCAACUUACACUUAGGAGAUUUCAACUUAACUUGACCGCUCUGA
B2: (mt)pre-tRNAVal/C9 (structured_RNA)
RNA: B1 RNA with A16C

Assays:
Assay in all cases: fluorescence anisotropy
[1] = biological target: T1, MRPP3 (Δ95)
[2] = biological target: T2, MRPP1 (Δ39);MRPP2
[3] = biological target: T3, MRPP1 (Δ39);MRPP2;MRPP3 (Δ95)
[4] = biological target: T2, MRPP1 (Δ39);MRPP2; remark: listed apart in the source
[5] = biological target: T3, MRPP1 (Δ39);MRPP2;MRPP3 (Δ95); remark: listed apart in the source

Binder | Kd [1] [µM] | binding result [2] | binding result [3] | binding result [4] | binding result [5]
B1 | 21.7 ± 2.6 | binds | binds | – | –
B2 | – | – | – | binds | binds
